Tests used:
Test in all cases: cryo-EM structure
[1] = target: 3×FLAG-tagged full-length mouse BIRC6 (mouse) (UniProt O88738)
[2] = target: 3×FLAG-tagged full-length mouse BIRC6 (mouse, UniProt O88738 1-4882)
[3] = target: the molecule itself

3×FLAG-tagged full-length mouse BIRC6, sequence (O88738 whole entry): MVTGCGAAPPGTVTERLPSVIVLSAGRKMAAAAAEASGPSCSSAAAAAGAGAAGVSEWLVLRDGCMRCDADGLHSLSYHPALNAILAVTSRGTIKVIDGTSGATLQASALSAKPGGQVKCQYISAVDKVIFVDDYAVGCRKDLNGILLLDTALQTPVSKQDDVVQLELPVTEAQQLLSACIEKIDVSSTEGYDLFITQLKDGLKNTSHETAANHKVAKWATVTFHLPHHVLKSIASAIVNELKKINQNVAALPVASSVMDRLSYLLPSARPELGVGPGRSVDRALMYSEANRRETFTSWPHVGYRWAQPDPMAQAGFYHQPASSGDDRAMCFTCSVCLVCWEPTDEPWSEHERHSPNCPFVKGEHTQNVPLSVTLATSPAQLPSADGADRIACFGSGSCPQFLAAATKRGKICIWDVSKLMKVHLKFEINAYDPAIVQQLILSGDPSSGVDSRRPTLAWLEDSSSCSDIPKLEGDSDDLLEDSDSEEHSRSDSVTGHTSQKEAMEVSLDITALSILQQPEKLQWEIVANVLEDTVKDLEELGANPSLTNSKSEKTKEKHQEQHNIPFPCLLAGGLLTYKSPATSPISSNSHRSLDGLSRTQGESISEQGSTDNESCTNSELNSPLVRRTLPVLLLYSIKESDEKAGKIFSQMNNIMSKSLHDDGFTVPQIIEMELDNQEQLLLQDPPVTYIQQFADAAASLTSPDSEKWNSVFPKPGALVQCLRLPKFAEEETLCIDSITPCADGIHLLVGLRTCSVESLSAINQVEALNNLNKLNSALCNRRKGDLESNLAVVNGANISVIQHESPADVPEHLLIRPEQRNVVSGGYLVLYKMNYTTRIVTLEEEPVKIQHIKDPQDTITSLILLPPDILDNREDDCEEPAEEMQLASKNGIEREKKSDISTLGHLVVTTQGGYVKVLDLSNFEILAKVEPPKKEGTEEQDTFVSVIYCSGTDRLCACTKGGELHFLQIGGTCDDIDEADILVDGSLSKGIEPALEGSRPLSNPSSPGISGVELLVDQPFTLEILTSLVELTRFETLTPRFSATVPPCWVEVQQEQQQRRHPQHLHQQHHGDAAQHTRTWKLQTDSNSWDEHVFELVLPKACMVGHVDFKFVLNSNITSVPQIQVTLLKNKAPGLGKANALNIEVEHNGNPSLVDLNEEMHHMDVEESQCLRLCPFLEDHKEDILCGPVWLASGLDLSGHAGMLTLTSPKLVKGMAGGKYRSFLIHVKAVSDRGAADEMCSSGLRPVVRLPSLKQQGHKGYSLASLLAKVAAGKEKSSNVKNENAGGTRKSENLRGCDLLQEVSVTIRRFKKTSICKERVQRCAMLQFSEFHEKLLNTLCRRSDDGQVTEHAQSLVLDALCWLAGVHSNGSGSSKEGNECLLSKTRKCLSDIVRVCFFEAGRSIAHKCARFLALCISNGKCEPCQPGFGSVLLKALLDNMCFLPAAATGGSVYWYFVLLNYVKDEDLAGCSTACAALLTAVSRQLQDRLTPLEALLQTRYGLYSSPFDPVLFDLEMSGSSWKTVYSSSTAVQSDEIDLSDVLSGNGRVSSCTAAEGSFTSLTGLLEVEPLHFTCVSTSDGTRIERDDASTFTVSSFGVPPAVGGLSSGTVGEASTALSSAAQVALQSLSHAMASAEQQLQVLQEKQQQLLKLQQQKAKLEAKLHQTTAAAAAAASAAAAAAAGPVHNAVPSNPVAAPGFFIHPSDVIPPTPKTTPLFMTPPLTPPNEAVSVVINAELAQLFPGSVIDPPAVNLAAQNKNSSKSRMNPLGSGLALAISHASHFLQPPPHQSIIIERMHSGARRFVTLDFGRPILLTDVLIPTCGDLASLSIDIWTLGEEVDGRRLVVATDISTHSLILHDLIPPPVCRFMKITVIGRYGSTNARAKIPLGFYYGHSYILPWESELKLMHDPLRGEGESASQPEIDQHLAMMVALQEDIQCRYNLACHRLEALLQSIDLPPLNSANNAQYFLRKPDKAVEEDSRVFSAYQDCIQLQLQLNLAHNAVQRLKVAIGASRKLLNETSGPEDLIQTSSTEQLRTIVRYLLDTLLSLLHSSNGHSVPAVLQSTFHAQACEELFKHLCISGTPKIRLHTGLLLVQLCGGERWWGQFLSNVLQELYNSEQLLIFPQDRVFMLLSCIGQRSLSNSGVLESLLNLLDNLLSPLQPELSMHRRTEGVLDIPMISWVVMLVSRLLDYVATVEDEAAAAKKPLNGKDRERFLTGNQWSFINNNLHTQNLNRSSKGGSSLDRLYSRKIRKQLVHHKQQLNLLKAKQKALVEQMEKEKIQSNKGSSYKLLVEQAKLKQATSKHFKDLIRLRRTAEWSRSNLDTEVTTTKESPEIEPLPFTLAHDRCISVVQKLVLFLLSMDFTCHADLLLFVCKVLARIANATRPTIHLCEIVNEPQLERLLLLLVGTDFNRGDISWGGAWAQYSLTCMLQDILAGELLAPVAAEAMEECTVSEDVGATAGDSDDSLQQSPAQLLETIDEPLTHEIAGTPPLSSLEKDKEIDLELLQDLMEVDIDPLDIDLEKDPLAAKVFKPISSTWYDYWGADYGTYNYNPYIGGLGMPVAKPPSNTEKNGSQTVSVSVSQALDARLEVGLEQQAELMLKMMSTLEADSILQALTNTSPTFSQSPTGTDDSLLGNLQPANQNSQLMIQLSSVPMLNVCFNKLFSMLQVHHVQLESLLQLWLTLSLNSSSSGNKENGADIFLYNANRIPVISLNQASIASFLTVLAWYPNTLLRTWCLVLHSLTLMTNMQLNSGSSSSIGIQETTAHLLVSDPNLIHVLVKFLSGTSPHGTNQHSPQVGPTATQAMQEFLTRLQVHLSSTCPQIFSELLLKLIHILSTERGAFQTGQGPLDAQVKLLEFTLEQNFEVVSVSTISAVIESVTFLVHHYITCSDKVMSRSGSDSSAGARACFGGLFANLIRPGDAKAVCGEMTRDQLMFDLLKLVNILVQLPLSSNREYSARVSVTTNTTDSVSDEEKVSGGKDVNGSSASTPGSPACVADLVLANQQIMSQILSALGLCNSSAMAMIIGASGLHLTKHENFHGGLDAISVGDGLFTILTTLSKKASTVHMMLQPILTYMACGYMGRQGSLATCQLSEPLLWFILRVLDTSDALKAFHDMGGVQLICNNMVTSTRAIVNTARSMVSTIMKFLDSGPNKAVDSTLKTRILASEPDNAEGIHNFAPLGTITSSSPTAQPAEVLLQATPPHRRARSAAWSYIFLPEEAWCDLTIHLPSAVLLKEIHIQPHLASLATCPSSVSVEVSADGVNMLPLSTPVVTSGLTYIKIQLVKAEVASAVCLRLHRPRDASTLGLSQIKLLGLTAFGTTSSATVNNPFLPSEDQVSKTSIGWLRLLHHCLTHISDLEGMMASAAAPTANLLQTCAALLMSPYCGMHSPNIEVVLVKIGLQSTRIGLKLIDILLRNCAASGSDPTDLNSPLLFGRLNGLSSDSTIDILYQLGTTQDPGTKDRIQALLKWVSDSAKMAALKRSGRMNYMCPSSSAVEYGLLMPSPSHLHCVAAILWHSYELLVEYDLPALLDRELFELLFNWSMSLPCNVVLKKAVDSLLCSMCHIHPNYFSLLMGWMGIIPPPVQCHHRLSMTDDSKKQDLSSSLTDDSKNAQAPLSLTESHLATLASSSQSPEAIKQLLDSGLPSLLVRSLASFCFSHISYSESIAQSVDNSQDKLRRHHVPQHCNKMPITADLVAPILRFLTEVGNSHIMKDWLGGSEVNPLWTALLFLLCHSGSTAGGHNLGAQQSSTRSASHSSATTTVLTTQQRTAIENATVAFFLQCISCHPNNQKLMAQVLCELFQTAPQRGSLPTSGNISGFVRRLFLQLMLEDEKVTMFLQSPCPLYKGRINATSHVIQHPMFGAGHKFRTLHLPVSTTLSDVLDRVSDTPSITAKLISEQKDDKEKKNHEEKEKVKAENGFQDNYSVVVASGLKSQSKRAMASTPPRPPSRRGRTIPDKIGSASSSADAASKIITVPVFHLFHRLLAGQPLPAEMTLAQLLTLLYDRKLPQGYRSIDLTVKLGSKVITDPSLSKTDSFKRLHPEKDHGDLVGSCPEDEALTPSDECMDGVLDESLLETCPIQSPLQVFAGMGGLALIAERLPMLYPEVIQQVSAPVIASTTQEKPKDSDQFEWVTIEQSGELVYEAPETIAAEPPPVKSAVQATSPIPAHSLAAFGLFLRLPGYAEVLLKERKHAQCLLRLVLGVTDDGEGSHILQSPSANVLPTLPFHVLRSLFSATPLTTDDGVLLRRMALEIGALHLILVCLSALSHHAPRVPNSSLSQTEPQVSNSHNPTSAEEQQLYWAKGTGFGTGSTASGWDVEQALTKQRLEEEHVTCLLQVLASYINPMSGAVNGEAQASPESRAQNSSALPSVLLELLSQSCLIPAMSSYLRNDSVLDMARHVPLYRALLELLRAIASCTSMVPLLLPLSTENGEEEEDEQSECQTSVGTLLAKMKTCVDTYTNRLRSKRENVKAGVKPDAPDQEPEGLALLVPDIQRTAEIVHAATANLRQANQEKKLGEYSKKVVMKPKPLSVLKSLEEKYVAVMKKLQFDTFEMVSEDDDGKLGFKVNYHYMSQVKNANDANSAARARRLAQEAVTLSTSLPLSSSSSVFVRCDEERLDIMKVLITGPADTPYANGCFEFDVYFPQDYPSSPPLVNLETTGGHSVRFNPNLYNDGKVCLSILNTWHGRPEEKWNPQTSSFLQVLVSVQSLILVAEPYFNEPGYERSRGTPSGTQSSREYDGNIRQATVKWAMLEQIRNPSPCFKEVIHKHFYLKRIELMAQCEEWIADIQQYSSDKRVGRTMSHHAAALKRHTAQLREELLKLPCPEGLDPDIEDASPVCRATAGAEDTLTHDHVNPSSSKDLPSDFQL

| Molecule | stoichiometry N [1] | binding result [2] | stoichiometry N [3] |
| --- | --- | --- | --- |
| 3×FLAG-tagged full-length mouse BIRC6, O88738 1-4882 | 2 |  |  |
| Smac/DIABLO, endogenous, co-purified with FLAG-BIRC6 from HEK293F cells (natural protein) AVPIAQKSEPHSLSSEALMRRAVSLVTDSTSTFLSQTTYALIEAITEYTKAVYTLTSLYRQYTSLLGKMNSEEEDEVWQVIIGARAEMTSKHQEYLKLETTWMTAVGLSEMAAEAAYQTGADQASITARNHIQLVKLQVEEVHQLSRKAETKLAEAQIEELRQKTQEEGEERAESEQEAYLRED |  | binds | 2 |

— doi:10.1101/2022.12.10.519866 (bioRxiv, 2022)
